Laboratory results published in the DeepSol protein solubility set.

test: soluble on expression in E. coli; label from the status in PepcDB or PDB records

Sequence	soluble on expression in E. coli
MTDNLNLGAIDLGTDDEFIARHIGPRAADTQAMLQRLGYDSLDTLIGNVIPDSIKGSSVLDLPAGMGEAEALASLKAIAARNRALRSFIGQGYYNCHTPAPILRNLLENPAWYTAYTPYQPEISQGRLEALLNFQTLVSDLSGLPIANASMLDEATAAAEAMTFCKRLSKNRTSQAFFASRHCHPQTLDVLRTRAEPLGIEVVVGDESTIEDFSAYFGALLQYPTCDGEIVDYRELVSRFHAVDALVAVAADLLALTLLTPPGEFGADVAIGSAQRFGVPLGFGGPHAAYFATRDAFKRDMPGRLVGVSIDRHGKPAYRLAMQTREQHIRREKATSNICTAQVLLANIASMFAVYHGPQGLLRIARRTHRLTAILAAGLERLGVAVEQKHFFDTLSLATGARTAAIHAKARAAGINLREIDAGRLGLSLDETVRQTDVETLWGLLAEEGQALPDFAALAASSGDRLPVELLRQSAILSHPIFNRHHSETELMRYLRKLADKDLALDRTMIPLGSCTMKLNAASEMIPVTWAEFGNLHPFAPAEQSEGYRQLTDELEAMLCSATGYDAVSLQPNAGSQGEYAGLLAIRAYHQSRGDSQRDICLIPSSAHGTNPATASMVGMRVVVVACDARGNVDVEDLRNKASEHKERLAALMITYPSTHGVFEEAIREICAIVHDCGGQVYIDGANMNAMVGLCAPGKFGGDVSHLNLHKTFCIPHGGGGPGVGPIGVRAHLAPFLPGHARGERKEGAVSAAPYGSASILPITWMYIRMMGGEGLKRASEMAILNANYIAHRLEEHYPVLYAGGNGLVAHECILDLRPLKDSSGISVDDVAKRLMDFGFHAPTMSFPVAGTLMIEPTESESKAELDRFCDAMIRIREEIRAVERGELDKEDNPLKNAPHTAAELLGEWNHAYSREQAAYPLASLVEAKYWPPVGRVDNVYGDRNLTCSCPPIEAYS	not soluble
MSLGEKSRETSSPWSSTILLVKITSADGLVGYGEAPTTLMTLPVLESMKEVARVFNGKDFFNVERNVFDFYRNSFYLPVSMEATSALSAFEIASWDLIGKQLGTPVYKLLGGEVNQKMRAYANGWYNDCVSPDDFLKKAKEVVKMGFTAMKFDPFGDNYDSITNDGLENARNIVGTLRSELGDKVDLLIEYHGRFSKIAAIKAGMALEEYHPFFYEEPLHPDLDHDLLDLKNYYRVPIALGERVLNKKIFARFISQKLVDIIQPDLTNSGGILEGKKIAAIADGFGIPVAPHNAFGPIQTAATLNLDTTITNFIIQESFEMFWPDWKKKLVSSGYKLENGYFTLTNEPGVCKVNEDIVEKYQVSGMEPFDDKEPPWVVSGTFKPYRQKEGHHHHHH	not soluble
MSLATISKITVQKKAKQRYNVFIGKPGAERFAFSVDEAILVKYGLRKGLELDENEIKALIEADELKKTHHLALHYLSYRMRTEKEIRDYLKEKDRLDEHIEKTIVSLKAEKLIDDRAFAEAFARSKTAQTLIGPNKIRQQLLQKGVNAEAMAKALSPYQIKWQIDVLTAWLDKQERRAVNRRESNEQLKQKRTHQLLAKGFEYEAIQAALANREANEDNEWEALVYQGEKLLKSYVKKYNGRELTYKLKQALYRKGFALSKIDRFLQTEMEGEEGHHHHHH	soluble
MGSDKIHHHHHHMILTVTASPYLLSTNELDGTIEIGEANKIRQVSTVAGGFGTGVAATLFYGGNETFAVFPAPEISHYMRLVTFAGLPHEIIPVAGPIPMHLTMRDAEGNETKFKDSPMPLDVSQLAILRDLVVRRAEDAAWVLLGGNLPSIAPAAWFVDVVRSLRLYHPHVKVAIAATGAALRAVIRQLAATSPDALIVAAEEIEIATGLEPKTLRGPWVEGDLSPTVAAARALIDSGVTEVLVTNKRTESLYVSESESLLASYDSTPGKQGVNWRESFTAGFLAASNDGKSTEDSVINAVAYANAEGSEWDNYIPTPDKLRAEHVVIKSL	not soluble
MGSMSMNAEQTVAELIARSNRLGSDPKNTNYAGGNTSAKGTDTDPVTGQPVELLWVKGSGGDLGTLTENGLAVLRLDRMRALVDVYPGVEREDEMVAAFDYCLHGRGGAAPSIDTAMHGLVDAAHVDHLHPDSGIALATAADGEALTKQIFGDRVVWVPWRRPGFQLGLDIADIKRRNPQAIGTILGGHGITAWGSTSAEAEAHSLEIIETAERYIAENGRPEPFLEHHHHHH	not soluble
MQASQFSAQVLDWYDKYGRKTLPWQIDKTPYKVWLSEVMLQQTQVATVIPYFERFMARFPTVTDLANAPLDEVLHLWTGLGYYARARNLHKAAQQVATLHGGKFPETFEEVAALPGVGRSTAGAILSLSLGKHFPILDGNVARVLARCYAVSGWPGKKEVENKLWSLSEQVTPAVGVERFNQAMMDLGAMICTRSKPKCSLCPLQNGCIAAANNSWALYPGKKPK	soluble
MATIKIKFRTSSVKTKEGVLFYQIIHARVTRQINTGYKIFPSEWDKHLACIILPDNNDIRRRFLAQLTSRIAEDMHRLKNIISKLEHSGNPFTSGKIIELFRIPPINKYSFLSFAQDLIIQLKQIGKERTAESYASAYNSFKRFMDNNGDVLLEDVNSNLMIKYEIYLKNCGVCPNSCSYYMRNLRAIYNRAVEKELTQQQYPFKYVYTGIDKTVKRAVSLKTIRQIQNLDLSTNPLMDYARDIFMFSFYTRGMSFIDMAYLKKKDLQNGVLSYRRHKTDQQLFIKWEKPMQKIVDKYNTIESSYLLPIIKNNGKDPRREYKNASHLINRKLKVIGQMLEIPVTLTTYVARHAWANIAKSKNISISVISEAMGHDSENTTRIYLASLDASIVDKANSIILKSL	not soluble
QVGLVRSKNVMIISPKYVAIQERLLRELDKGVTLVPIEGGYRNAKGMLLMTVIREKDFPRLKEAILEIDEEAFLISMSASEVYGKGFSLKKVADSYGVEATNANNLQ	not soluble
MPAIEVGRICVKVKGREAGSKCVIVDIIDDNFVLVTGPKDITGVKRRRVNILHLEPTDKKIDIQKGASDEEVKKKLEESNLTEYMKEKIKIRMPTL	soluble
MDSLMRVFSHRSPPPSFGFACDVGAHPSSTAQNLPMTYGSVREMIDDFSIVFGVPKYRTSKPKKVTRKFSFTRLLQPIDNLVTCPACSNIHPSDTICDACYAKVHQLTSEIKKKMMQYNPYVGEKQDKEVYVKFRGEPDAPAAVVKGKRVLEIEKERPTWFKKLTLKE	not soluble
DIQMTQSPSSLSASVGDRVTITCRASGNIHNYLAWYQQKPGKAPKLLIYYTTTLADGVPSRFSGSGSGTDYTFTISSLQPEDIATYYCQHFWSTPRTFGQGTKVEIKR	soluble
MVIHKINKLIATIKTQGIRKAIVKVAAQFKFSYKYYFIYTYNLNSSSPAIAVNEAINTNENDYSIKWWSESDFCKNKTTYLEKRSDMTDSYIENWLPLGHQTVVARSLPNNDIIGDMWLAFDNFPFPSKSKSLRDWAIENHYGYAFMAFVQPSHRGKKILPCLMNEQLKLVKDNNKKGLMALIMPKSKSSHKSFSSMGFKRVGKLHVLQLFSNNHTWISV	not soluble
MGSDKIHHHHHHMTKARDDRYNFGFLDENTKRMLRRSLLKAVAIPGYQVPFGSREMPLPYGWGTGGIQLTASVIGRDDVLKVIDQGADDTTNAVNIRRFFGRVAGVATTTRTADATLIQTRHRIPETPLKPGQILIFQVPEPEPLRTLEASEVETRKLHAHQEYGLMHVKLYEDIARFGHIATSYDYPVMVNDRYLASPSPIPKFDNPKLDMNPALLLFGAGREKRLYAIPPYTKVESLAFDDHPFEIQSWQQGCAICGSHDSYLDEIVIDDAGSRMFVCSDTDYCQREKQA	not soluble
MGSDKIHHHHHHMPGFNSSPASEKSSLLRQHFPLVTIPEYNSWDPDIAYIQLEQAILPLLNQGVLLTGSSLGGFWAYQFACRYRQPCLLINPCMHPELSLQRYIGKVENFYSHEQGWLTEAHLGKYAAYRVNGQPSRLTVLHEQGDELIPYMESVVNFSGKAKLILPGGGHHRFARTDLIAACIRDMLPPEDAGHQKA	not soluble
MSLNGTSGSVARQLAARRIIGTSWRLFVAYLKWSGVLEVSFKGVEKLNRPGQLILANHPSLLDVVLLVGHVPEMNCIVKKDLQHNPAMSSQIKGAGYIPNEESEAMLETVKAVFDSGQSLLVFPEGTRTGWDGRVKMHRGAVSLGLRYAEVITPVCIKMNPPNFKKGQPWYRIPPKRIRYEITVGDDILPQDWLAEKPLPIAARRLNEYLQDYFTRKTIEGHHHHHH	not soluble
